According to patent US20250011448A1 (STAIDSON BIOPHARMA, published 2025):
Numbering of substitutions follows the chain as printed.

Columns and labels:
[1] = molecular target: T1, cynomolgus monkey TNFR2 extracellular domain as used in the blocking ELISA (cynomolgus monkey, UniProt P20333 23-257 (human entry)); experiment: blocking ELISA: antibody pre-mixed with cynoTNFR2, binding of cynoTNFR2 to coated cynomolgus monkey TNFα read out
T1 construct: also called cynoTNFR2
T1 chain: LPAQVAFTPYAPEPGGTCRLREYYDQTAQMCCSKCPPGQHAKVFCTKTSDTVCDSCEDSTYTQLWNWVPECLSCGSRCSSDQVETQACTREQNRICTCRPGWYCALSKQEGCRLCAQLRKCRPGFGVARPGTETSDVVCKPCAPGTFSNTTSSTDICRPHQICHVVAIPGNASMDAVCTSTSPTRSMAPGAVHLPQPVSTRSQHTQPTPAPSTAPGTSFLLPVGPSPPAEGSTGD
Protocol: 96-well round bottom ELISA plates were coated overnight at 4° C. with 50 μL/well of 0.5 μg/mL human TNFα recombinant protein (R&D system, Cat #210-TA-100) in coating buffer. After removing the coating solution, blocking buffer was added into the plates followed by incubation at room temperature for 1 hour in order to block unspecific binding. During the blocking period, hybridoma antibodies samples were mixed with 0.5 μg/mL TNFR2-huFc at a 1:1 volume ratio and incubated at room temperature for another 1.5 hours. Then 50 μL/well of antigen-antibody mix solution was transferred into TNFα coated wells and incubated at room temperature for 1.5 hours. Plates were then washed 5 times with wash buffer. Then, 50 μL/well of goats anti-human IgG Fc-AP (Southern Biotech, cat #2014-04) at 1:2000 dilution in assay buffer was added, incubated at room temperature for 1 hour, washed 4 times with wash buffer and developed for 30 minutes with 50 μL/well of pNPP substrate. Plates were analyzed with a Synergy HT (Bio-TEK) at 405 nm. Parental hybridomas with the desired human and cynoTNFR2 binding as well as the ability to block human TNFR2 and human TNFα binding were prioritized for subcloning and further characterization. Subcloning was carried out with limited dilution and visual inspection was performed to ensure clonality. Hybridoma subclones were screened with the same binding and blocking assays and selected positive hits were cryopreserved.
TNFR2 blocking by purified recombinant chimeric antibodies: Human TNFR2 blocking ELISA was performed on purified recombinant chimeric antibodies following the same protocol as described above, except that 50 μL/well of serial dilution of purified antibodies (starting at 10 μg/mL, 1:3 dilution) in assay buffer was added into the reaction. The blocking IC₅₀ value represents the antibody concentration that inhibited 50% of huTNFR2 or cynoTNFR2 binding to coated human TNFα or cynomolgus monkey TNFα.

[2] = molecular target: T2, cynomolgus monkey TNFR2 extracellular domain with C-terminal 10×His tag (cynomolgus monkey, UniProt P20333 23-257 (human entry)); experiment: ELISA, plate coated with His-tagged TNFR2 ECD, serial dilution of chimeric IgG
T2 construct: also called cynoTNFR2-His; His-tag-cynoTNFR2
T2 chain: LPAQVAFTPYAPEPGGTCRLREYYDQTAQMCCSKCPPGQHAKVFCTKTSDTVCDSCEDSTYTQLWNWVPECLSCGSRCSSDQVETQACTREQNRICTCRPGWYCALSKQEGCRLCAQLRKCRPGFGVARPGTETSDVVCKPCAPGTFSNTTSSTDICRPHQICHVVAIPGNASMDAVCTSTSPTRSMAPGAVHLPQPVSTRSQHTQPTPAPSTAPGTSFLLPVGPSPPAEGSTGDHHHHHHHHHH
Protocol: TNFR2 binding of purified recombinant chimeric antibodies: The huTNFR2, cynoTNFR2 antigen binding ELISA was performed on the purified recombinant chimeric antibodies. Briefly, 384-well, clear, flat bottom, high binding plates (VWR, cat #29444-096) were coated overnight at 4° C. with 1 μg/mL of huTNFR2 or cynomolgus monkey TNFR2-His in PBS. After removing the coating solution, the plates were blocked by adding blocking buffer and incubated at room temperature for 1 hour. Plates were then washed 3 times with wash buffer. Serial dilution of purified antibodies in PBS was added to individual well followed by incubation at room temperature for 1 hour. Plates were washed 3 times with wash buffer. Then 50 μL/well of goat anti hu Kappa —AP (Southern Biotech, cat #2061-04) at 1:3000 dilution or goat anti human IgG Fc-AP at 1:3000 dilution in ELISA diluent was added, incubated at room temperature for 1 hour, washed 5 times with wash buffer and developed for 30 minutes with 50 μL/well of pNPP substrate. Plates were analyzed with a Bio-TEK at 405 nm. The chimeric TNFR2 antibodies were tested positive for binding to huTNFR2 and cynoTNFR2. The TNFR2 binding EC50 values are shown in Table 6, FIG. 1A (for huTNFR2) and FIG. 1B (for cynoTNFR2).

[3] = molecular target: T2, cynomolgus monkey TNFR2 extracellular …; experiment: BLI (Octet RED96), antibody captured on AHC biosensor, His-tagged TNFR2 in solution, 1:1 model
Protocol: (§1) The following kinetic assay was performed using anti-human IgG Fc capture (AHC) biosensors (ForteBio) in kinetics buffer (PBS, 0.1% Tween-20 and 1% bovine serum albumin): (a) antibody (2 μg/mL) for 300 sec, (b) baseline for 120 sec, (c) association with His-tag-huTNFR2 (2.5, 0.5 and 0 μg/mL) and His-tag-cynoTNFR2 (2.5, 0.5 and 0 μg/mL) for 420 sec and (d) dissociation for 1200 sec. Data fitting and analysis was performed with Octet data analysis software 8.0 (ForteBio) using a 1:1 binding model after Savitzky-Golay filtering.

[4] = molecular target: T3, human TNFR2 extracellular domain with C-terminal 10×His tag (human, UniProt P20333 23-257); experiment: BLI (Octet RED96), antibody captured on AHC biosensor, His-tag-huTNFR2 in solution, 1:1 model
T3 construct: also called huTNFR2-His; His-tag-huTNFR2
T3 sequence: T2 chain with G16S, P36S, Q117P, H164N, A210E, G216S, V223M
Protocol: as §1, with “μg/mL)” for “μg/mL) and His-tag-cynoTNFR2 (2.5, 0.5 and 0 μg/mL)”, “filtering. The dissociation constant (Kd) was calculated as the ratio of Koff/Kon.” for “filtering.”

[5] = molecular target: T4, human TNFR2 expressed on cells (Expi293 cells stably expressing huTNFR2) (human, UniProt P20333 23-461); experiment: flow cytometry on Expi293 cells stably expressing huTNFR2, y axis TNFR2 binding (MFI)
T4 construct: whole, on cells; Also used here as the target of the Treg assay (native TNFR2 on human primary Treg cells); also called huTNFR2 expressed cells; Expi293-TNFR2 cells
T4 sequence (looked up): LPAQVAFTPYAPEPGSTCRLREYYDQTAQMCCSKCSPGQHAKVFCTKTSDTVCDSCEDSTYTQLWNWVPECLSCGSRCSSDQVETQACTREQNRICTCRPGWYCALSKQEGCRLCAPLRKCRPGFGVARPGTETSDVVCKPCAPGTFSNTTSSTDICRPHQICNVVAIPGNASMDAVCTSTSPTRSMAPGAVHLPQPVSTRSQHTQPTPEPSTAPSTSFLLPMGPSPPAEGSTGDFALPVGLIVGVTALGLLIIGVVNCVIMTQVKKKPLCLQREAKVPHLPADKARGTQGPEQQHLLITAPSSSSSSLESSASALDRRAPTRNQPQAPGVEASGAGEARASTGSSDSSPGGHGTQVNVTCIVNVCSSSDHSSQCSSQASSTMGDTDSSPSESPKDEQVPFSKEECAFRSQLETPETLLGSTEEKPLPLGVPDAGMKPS
Protocol: The coding sequence of huTNFR2 (Uniprot, P20333) was cloned into a lentiviral vector and the virus was packaged according to the instruction of the virus packaging kit (Lenti-X™ Packaging Single Shots, Cat #631275, Takada). The Expi293 cells were transduced with the recombinant virus and selected by puromycin. The cell line stably expressing huTNFR2 was incubated with anti-TNFR2 antibodies in PBS with 0.5% BSA, 1 mM EDTA, and 0.1% sodium azide (FACS buffer) for 30 minutes at 4° C. The cells were washed, and then incubated with 10 nM phycoerythrin (PE) conjugated anti-Human Fe Ab (Biolegend, cat #409304) for 20 minutes at 4° C. Cells were washed and then […] by flow cytometry with Attune (ThermoFisher Scientific). Data were analyzed with FlowJo software. Antibody binding is represented as median fluorescence intensity (MFI).
FACS based binding and blocking assays of humanized antibodies were performed as described above.

[6] = molecular target: T3, human TNFR2 extracellular domain with …; experiment: BLI (Octet RED96), antibody captured on AHC biosensor, His-tagged TNFR2 in solution, 1:1 model
Protocol: as §1

B1: 51B5 chimeric anti-TNFR2 antibody (antibody, V domains shown)
VH: QVQLQQSGAELARPGTSVKLSCKASGYTFTDDYIDWVKQRTGQGLEWIGEIYPGSGNTYYNEKFKGKATLTADKSSSTAYMQLSSLTSEDSAVYFCARSQVYGKIAMDHWGQGTSVTVSS
VL: DIVLTQSPASLAVSLGQRATISCRASESVDNSGNSFMHWYQQIPGQPPKLLIYRASNLESGIPARFSGSGARTDFTLTIDPVGAVDVATYYCQQSKEDPYTFGGGTKLEIE
notes: Chimeric: mouse variable domains with human constant regions, made as recombinant IgG1
- IC50 [1]: 0.968 nM
- EC50 [2]: 0.0494 nM
- Kd [3]: 0.672 nM
- koff [3]: 0.00065 s⁻¹
- kon [3]: 967000 M⁻¹ s⁻¹

B2: SB1901-68 humanized anti-TNFR2 antibody (antibody, V domains shown)
VH: QVQLVQSGAEVKKPGASVKVSCKASGYTFTDDYIDWVRQATGQGLEWIGEIYPGSGNTYYNEKFKGRVTMTRDTSISTAYMELSSLRSEDTAVYYCARSQVYGKIAMDHWGQGTLVTVSS
VL: DIVMTQSPDSLAVSLGERATINCRASESVDNSGNSFMHWYQQKPGQPPKLLIYRASNLESGVPDRFSGSGSRTDFTLTISSLQAEDVAVYYCQQSKEDPYTFGQGTKVEIK
- Kd [4]: 1.95 nM
- koff [4]: 0.000796 s⁻¹
- kon [4]: 408000 M⁻¹ s⁻¹

B3: SB1901-82 (antibody, V domains shown)
VH: B2 VH with T41P, I48M, I76T, A79V
VL: B2 VL
notes: humanized version of 51B5; also called SB1901-82 humanized anti-TNFR2 antibody
- EC50 (read off the curve) [5]: ~0.6 nM

B4: SB1901-80 humanized anti-TNFR2 antibody (antibody, V domains shown)
VH: B2 VH with T41P, I76T, A79V
VL: B2 VL
- Kd [4]: 2.52 nM
- koff [4]: 0.000937 s⁻¹
- kon [4]: 373000 M⁻¹ s⁻¹
- EC50 (read off the curve) [5]: ~0.6 nM

B5: SB1901-74 (antibody, V domains shown)
VH: B2 VH with D73N, S75A
VL: B2 VL
notes: humanized version of 51B5; also called SB1901-74 humanized anti-TNFR2 antibody
- EC50 (read off the curve) [5]: ~0.6 nM

B6: SB1901-78 (antibody, V domains shown)
VH: B2 VH with R72A, T74K
VL: B2 VL
notes: humanized version of 51B5; also called SB1901-78 humanized anti-TNFR2 antibody
- EC50 (read off the curve) [5]: ~0.6 nM

B7: SB1901-69 humanized anti-TNFR2 antibody (antibody, V domains shown)
VH: B2 VH with I48M, T74K
VL: B2 VL with S71A, R72G
- Kd [4]: 1.25 nM
- koff [4]: 0.000513 s⁻¹
- kon [4]: 410000 M⁻¹ s⁻¹

B8: 6F12 chimeric anti-TNFR2 antibody (antibody, V domains shown)
VH: QIQLVQSGPELKKPGETVKISCKTSGYTFTIYGMNWVKQAPGKGLKWMGWIHTYTGEPTYADDFKGRFVFSLETSDSTAYLQINNLKSEDMATYFCVRRERYGSFWGQGTLVTVSA
VL: DIVLTQSPASLAVSLGQRATISCTASQSVDYGGVSYMNWYQQKPGQPPKLLIYGASNQESGIPVRFSGSGSGTDFTLNIHPVEEEDAATYYCQQSNEDPPTFGAGTKLELK
notes: as for B1
- Kd [6]: 3.77 nM
- koff [6]: 0.000886 s⁻¹
- kon [6]: 239000 M⁻¹ s⁻¹
